Measurements reported in the supplement of paper PMC10567573.

B1: INTS3 (parent)
chain: YPPLEGHVRQGVFSSLNHIVEKRV
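Further: lentivirally expressed fusions sorted by FACS into six bins by GFP to DsRed ratio, PSI derived from sequencing read proportions per bin multiplied by bin number.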

Variants of: B1
Test: protein stability index of a GFP-peptide fusion (GPS, HEK-293T) (PSI 1-6); higher = more stable
Conditions: c terminus: a fixed tail appended
With YPPDEGHVRQGVFSSLNHIVEKRV [L4D] the protein stability index was 2.46.
In the case of YPPWEGHVRQGVFSSLNHIVEKRV [L4W], the protein stability index is reported as 2.91.
YPPHEGHVRQGVFSSLNHIVEKRV [L4H] showed a protein stability index of 3.01.
With YPPFEGHVRQGVFSSLNHIVEKRV [L4F] the protein stability index was 3.06.
YPPCEGHVRQGVFSSLNHIVEKRV [L4C] gave a protein stability index of 2.21.
Work on YPPREGHVRQGVFSSLNHIVEKRV [L4R] yielded a protein stability index of 2.32.
YPPIEGHVRQGVFSSLNHIVEKRV [L4I] showed a protein stability index of 2.74.
With YPPYEGHVRQGVFSSLNHIVEKRV [L4Y] the protein stability index was 1.83.
In the case of YPPMEGHVRQGVFSSLNHIVEKRV [L4M], the protein stability index is reported as 2.45.
YPPEEGHVRQGVFSSLNHIVEKRV [L4E] gave a protein stability index of 1.08.
In the case of YPPTEGHVRQGVFSSLNHIVEKRV [L4T], the protein stability index is reported as 1.79.
YPPSEGHVRQGVFSSLNHIVEKRV [L4S] showed a protein stability index of 2.58.
With YPPNEGHVRQGVFSSLNHIVEKRV [L4N] the protein stability index was 2.19.
With YPPKEGHVRQGVFSSLNHIVEKRV [L4K] the protein stability index was 2.64.
Variant YPPAEGHVRQGVFSSLNHIVEKRV [L4A] has a protein stability index of 2.7.
In the case of YPPGEGHVRQGVFSSLNHIVEKRV [L4G], the protein stability index is reported as 1.35.
In the case of YPPQEGHVRQGVFSSLNHIVEKRV [L4Q], the protein stability index is reported as 2.74.
Work on YPPVEGHVRQGVFSSLNHIVEKRV [L4V] yielded a protein stability index of 3.04.
With YPPLEGGVRQGVFSSLNHIVEKRV [H7G] the protein stability index was 2.3.
YPPLEGDVRQGVFSSLNHIVEKRV [H7D] gave a protein stability index of 2.79.
For YPPLEGFVRQGVFSSLNHIVEKRV [H7F], the protein stability index was 2.42.
Work on YPPLEGAVRQGVFSSLNHIVEKRV [H7A] yielded a protein stability index of 2.68.
Variant YMPLEGHVRQGVFSSLNHIVEKRV [P2M] has a protein stability index of 2.1.
For YHPLEGHVRQGVFSSLNHIVEKRV [P2H], the protein stability index was 1.82.
With YDPLEGHVRQGVFSSLNHIVEKRV [P2D] the protein stability index was 3.36.
With YVPLEGHVRQGVFSSLNHIVEKRV [P2V] the protein stability index was 1.36.
YLPLEGHVRQGVFSSLNHIVEKRV [P2L] gave a protein stability index of 2.7.
Work on YCPLEGHVRQGVFSSLNHIVEKRV [P2C] yielded a protein stability index of 1.78.
For YGPLEGHVRQGVFSSLNHIVEKRV [P2G], the protein stability index was 2.85.
Variant YQPLEGHVRQGVFSSLNHIVEKRV [P2Q] has a protein stability index of 2.02.
YRPLEGHVRQGVFSSLNHIVEKRV [P2R] gave a protein stability index of 3.48.
Variant YYPLEGHVRQGVFSSLNHIVEKRV [P2Y] has a protein stability index of 2.6.
In the case of YFPLEGHVRQGVFSSLNHIVEKRV [P2F], the protein stability index is reported as 2.71.
In the case of YNPLEGHVRQGVFSSLNHIVEKRV [P2N], the protein stability index is reported as 1.82.
Variant YIPLEGHVRQGVFSSLNHIVEKRV [P2I] has a protein stability index of 1.55.
In the case of YKPLEGHVRQGVFSSLNHIVEKRV [P2K], the protein stability index is reported as 2.49.
YAPLEGHVRQGVFSSLNHIVEKRV [P2A] showed a protein stability index of 2.18.
Variant YEPLEGHVRQGVFSSLNHIVEKRV [P2E] has a protein stability index of 3.54.
For YTPLEGHVRQGVFSSLNHIVEKRV [P2T], the protein stability index was 1.6.
Variant YSPLEGHVRQGVFSSLNHIVEKRV [P2S] has a protein stability index of 1.97.
In the case of YPPLPGHVRQGVFSSLNHIVEKRV [E5P], the protein stability index is reported as 2.14.
Variant YPPLFGHVRQGVFSSLNHIVEKRV [E5F] has a protein stability index of 1.66.
Work on YPPLCGHVRQGVFSSLNHIVEKRV [E5C] yielded a protein stability index of 2.08.
Work on YPPLYGHVRQGVFSSLNHIVEKRV [E5Y] yielded a protein stability index of 1.87.
For YPPLNGHVRQGVFSSLNHIVEKRV [E5N], the protein stability index was 2.05.
Work on YPPLLGHVRQGVFSSLNHIVEKRV [E5L] yielded a protein stability index of 2.14.
In the case of YPPLMGHVRQGVFSSLNHIVEKRV [E5M], the protein stability index is reported as 2.24.
Variant YPPLGGHVRQGVFSSLNHIVEKRV [E5G] has a protein stability index of 3.59.
Variant YPPLQGHVRQGVFSSLNHIVEKRV [E5Q] has a protein stability index of 2.02.
YPPLDGHVRQGVFSSLNHIVEKRV [E5D] showed a protein stability index of 3.54.
YPPLSGHVRQGVFSSLNHIVEKRV [E5S] showed a protein stability index of 1.84.
With YPPLVGHVRQGVFSSLNHIVEKRV [E5V] the protein stability index was 1.49.
Work on YPPLHGHVRQGVFSSLNHIVEKRV [E5H] yielded a protein stability index of 2.24.
YPPLIGHVRQGVFSSLNHIVEKRV [E5I] gave a protein stability index of 1.73.
Variant YPPLAGHVRQGVFSSLNHIVEKRV [E5A] has a protein stability index of 2.52.
With YPPLTGHVRQGVFSSLNHIVEKRV [E5T] the protein stability index was 1.96.
With YPPLKGHVRQGVFSSLNHIVEKRV [E5K] the protein stability index was 2.1.
YPPLWGHVRQGVFSSLNHIVEKRV [E5W] showed a protein stability index of 1.9.
Work on YPPLEWHVRQGVFSSLNHIVEKRV [G6W] yielded a protein stability index of 2.65.
In the case of YPPLEMHVRQGVFSSLNHIVEKRV [G6M], the protein stability index is reported as 2.51.
YPPLETHVRQGVFSSLNHIVEKRV [G6T] showed a protein stability index of 3.99.
YPPLESHVRQGVFSSLNHIVEKRV [G6S] showed a protein stability index of 2.73.
With YPPLEAHVRQGVFSSLNHIVEKRV [G6A] the protein stability index was 2.38.
YPPLEDHVRQGVFSSLNHIVEKRV [G6D] showed a protein stability index of 2.81.
Variant YPPLEYHVRQGVFSSLNHIVEKRV [G6Y] has a protein stability index of 2.38.
Variant YPPLEIHVRQGVFSSLNHIVEKRV [G6I] has a protein stability index of 1.76.
YPPLEVHVRQGVFSSLNHIVEKRV [G6V] gave a protein stability index of 2.07.
In the case of YPPLEFHVRQGVFSSLNHIVEKRV [G6F], the protein stability index is reported as 2.2.
With YPPLEHHVRQGVFSSLNHIVEKRV [G6H] the protein stability index was 2.98.
Work on YPPLECHVRQGVFSSLNHIVEKRV [G6C] yielded a protein stability index of 2.39.
Variant YPPLENHVRQGVFSSLNHIVEKRV [G6N] has a protein stability index of 2.86.
For YPPLELHVRQGVFSSLNHIVEKRV [G6L], the protein stability index was 2.06.
Work on YPPLEPHVRQGVFSSLNHIVEKRV [G6P] yielded a protein stability index of 2.76.
Work on YPPLEKHVRQGVFSSLNHIVEKRV [G6K] yielded a protein stability index of 2.13.
For YPPLERHVRQGVFSSLNHIVEKRV [G6R], the protein stability index was 2.3.
In the case of YPPLEQHVRQGVFSSLNHIVEKRV [G6Q], the protein stability index is reported as 2.74.
Variant YPPLEEHVRQGVFSSLNHIVEKRV [G6E] has a protein stability index of 3.51.
Variant DPPLEGHVRQGVFSSLNHIVEKRV [Y1D] has a protein stability index of 3.85.
Variant PPPLEGHVRQGVFSSLNHIVEKRV [Y1P] has a protein stability index of 3.94.
RPPLEGHVRQGVFSSLNHIVEKRV [Y1R] showed a protein stability index of 4.09.
Variant MPPLEGHVRQGVFSSLNHIVEKRV [Y1M] has a protein stability index of 3.59.
Variant NPPLEGHVRQGVFSSLNHIVEKRV [Y1N] has a protein stability index of 4.12.
Work on SPPLEGHVRQGVFSSLNHIVEKRV [Y1S] yielded a protein stability index of 3.78.
APPLEGHVRQGVFSSLNHIVEKRV [Y1A] showed a protein stability index of 4.01.
Variant EPPLEGHVRQGVFSSLNHIVEKRV [Y1E] has a protein stability index of 3.96.
With QPPLEGHVRQGVFSSLNHIVEKRV [Y1Q] the protein stability index was 3.48.
Work on GPPLEGHVRQGVFSSLNHIVEKRV [Y1G] yielded a protein stability index of 3.43.
Work on TPPLEGHVRQGVFSSLNHIVEKRV [Y1T] yielded a protein stability index of 3.94.
LPPLEGHVRQGVFSSLNHIVEKRV [Y1L] gave a protein stability index of 3.53.
With FPPLEGHVRQGVFSSLNHIVEKRV [Y1F] the protein stability index was 2.88.
In the case of KPPLEGHVRQGVFSSLNHIVEKRV [Y1K], the protein stability index is reported as 4.07.
With HPPLEGHVRQGVFSSLNHIVEKRV [Y1H] the protein stability index was 4.07.
CPPLEGHVRQGVFSSLNHIVEKRV [Y1C] gave a protein stability index of 3.94.
YPQLEGHVRQGVFSSLNHIVEKRV [P3Q] showed a protein stability index of 2.87.
